Laboratory results taken from patent publication US20190330358A1.

Legend:
[1] = biological target: human AITR expressed on the cell surface (human) (UniProt Q9Y5U5); experiment: flow cytometry on iTreg cells, surface AITR
[2] = biological target: human AITR expressed on the cell surface (human) (UniProt Q9Y5U5); experiment: flow cytometry on AITR-5 cells (HEK293 overexpressing human AITR); unstained AITR-5 panel: Q1 0.98
[3] = biological target: human AITR expressed on the cell surface (human) (UniProt Q9Y5U5); experiment: flow cytometry on human iTreg cells; average of TRX518 and MK4166

Sequence of human AITR expressed on the cell surface (human) (Q9Y5U5 26-241): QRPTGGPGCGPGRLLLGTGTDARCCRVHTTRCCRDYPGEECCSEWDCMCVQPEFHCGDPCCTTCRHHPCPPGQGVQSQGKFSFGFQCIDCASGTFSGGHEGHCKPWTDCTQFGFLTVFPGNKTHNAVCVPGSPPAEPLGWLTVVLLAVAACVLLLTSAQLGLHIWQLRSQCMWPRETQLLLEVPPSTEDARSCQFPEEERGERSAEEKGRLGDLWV

Substance	% of iTreg cells in the upper right quadrant (CD4+, antibody-positive) [1] [%]	% of AITR-5 cells in Q1 (antibody-positive) [2] [%]	% of iTreg cells recognized as positive for human AITR [3] [%]
Isotype control (antibody)	0.79	1.95	
MK4166 (Merck's anti-GITR antibody)	17.1		19
TRX518 (antibody)	20.8		19
